Assay results from PMC2894447.

B1: APC-B-ΔN4 (domain or fragment)
chain: ASTKSSGSGKMSYTSPGRQMSQQNLTKQTGLSKNASSIPRSESASKGLNQMNNGNGANKKVELSRMSSTKSSGSESDRSERPVLVRQSTFIKEAPSPTLRRKLEESASFESLSPSSRPASPTRSQAQTPVLSPSLPDMSLSTHSSVQAGGWRKLPPNLSPTIEYNDGRPAKRHDIARSHSESPSRLPINRSGTWKREHSKHSSSLPRVSTWRRTGSSSSILSASSESSEKAKSEDEKHVNSISGTKQSKENQVSAKGTWRKIKENEFSPTNSTSQTVSSGATNGAESKTLIYQMAPAVSKTEDVWVRIEDCPINNPRSGRS
modifications: not checked

Columns and labels:
[1] = target: Rabbit skeletal muscle actin, monomeric (G-actin), 100% pyrene labeled (rabbit) (UniProt P68135); assay: other fluorescence titration
APC-B-ΔN4 = assay: SEC + other: sucrose gradient sedimentation velocity

Row | Molecule | Kd [1] | stoichiometry N (APC-B-ΔN4)
1 | APC-B, the C-terminal Basic domain of adenomatous polyposis coli protein (domain or fragment) | 17.3 nM | 
2 | B1 |  | 1.97
